In the DeepSol protein solubility set:

Test: soluble on expression in E. coli; label from the status in PepcDB or PDB records

Row | Sequence | soluble on expression in E. coli
1 | MGSDKIHHHHHHMSGKIAFVTGATGLLGSNLCRALVSQGWQVKGLVRSLDKAKRFLGDSNIELIQGDIEDVPAFTQALKGVDVVFHTAAFFREYYQPGSDWQKMKRINVDTTIELLQAAEAQGVAKVVFTSSSGVIQTDPHQAATETAPYNKFAEQNLYFKTKILAEQEIYRFLNTSQIDVVMILPGWMMGPGDAAPTSAGQLVLDLLAGKLPGVINGGAALTDVRDVATVMVKAAEKGESGGRYIVAGPLTTMKEIALELEAISGVKAPRMEIPDGMAIAIAWFLEKFTGLTGGVNPMPLAGIQTLLEKAKLSSAKAERDLGATFRPLRETLKDTVLWYQSQGYV | not soluble
2 | TMNNEMSDPQIEEFYTIVKELEKFDTFTNFLDVHQPELAIVFGRTKRRVDELTSALISKGYKAEGLHGDITQAKRLEVLKKFKNDQINILVATDVAARGLDISGVSHVYNFDIPQDTESYTHRIGRTGRAGKEGIAVTFVNPIEMDYIRQIEDANGRKMSALRPPHRKEVLQAREDDIKEKVENWMSKESESRLKRISTELLNEYNDVDLVAALLQELVEANDEVEVQLTFEKPLSRKGRNGKPSGSR | not soluble
3 | MGSDKIHHHHHHMENALLVGLSRQVVLERQMDVVANNLANLNTNGFKAERSVFQEFLNTGAHEDNFARPDRRVSFVQDRATYHDLSTGALQETKNPLDVAIDGKGFLVVQTPQGERFTRDGSLTINAQGQLVNGSGFPVLGTGGPIVIQPTDKELSISPDGRVSVVEGTSIIDSLRGKLRVVTFDRPQSLIKQGGNLFAATSDQGTPDTKSMVRQGYVEKSNVNSVLEMTRMIDVTRTYTQISAMLQQESELRKTAIEKLAEVPA | not soluble
4 | GHMPGRAPGSTLARVGSIPAGDDVLDPDEPTYDLPRVAELLGVPVSKVAQQLREGHLVAVRRAGGVVIPQVFFTNSGQVVKSLPGLLTILHDGGYRDTEIMRWLFTPDPSLTITRDGSRDAVSNARPVDALHAHQAREVVRRAQAMAY | soluble
5 | MAGAGMYGDCSLAATLSYGAVLEPYLHPKPGGVTPYASEGGKSFGDFVLHATLSSRLLAWACLKAWKNGPIGVIASVKERYLREVVPRFKGNIAYGTFMLMAPLAVAIALSKSSEPEELVTTARDTIYCCTGRRESLLHYKILRRLSPSHLGRYRGELPDVASGGERDIPPYPLLLKLNSWDMVHRELAKGYPITLEAYRHSLNRVKEGRSVEEALLEALLKVLAEHGDTLIFQKYGGRAFKMAREEARVAFHVSERWGVRHAITWLERLWRGREWNPGAALDIVAVASGLLLITISRDASS | not soluble
6 | MLAHIKITHFAIVKSLELDLTKGMTTITGETGAGKSIAIDALGLCLGDRAEASMVRQGEEKAEITVLFTLENNINAKRWLEDNELYDGNDCILRRVITKEGRSRGFINGSPVPAAQLKTLGHLLINIHGQHAHHELMKPEYQLNMLDQYAGHVSLLNKTRSRYQAWRQA | not soluble
7 | MGSDKIHHHHHHMKPRNESVILLHGLARTRGSMEKMEHALSAKGYQCVNLGYPSTQFDIETLAGEHIDKALSQCRGERVHFVTHSMGGILVRQYLSQHTLPALGRVVMLGPPNRGSEVVDSLKDFPGFKWINGPAGLQLGTEEESVPNRLGKAHFEVGVIAGSRSVNLLLSTLLPWPNDGKVSVARTHLEGMRDHISLAVTHPFMMNNPSVIAQTAYFLAHGRFQR | not soluble
8 | EAGAPCGRISFALRYLYGSDQLVVRILQALDLPAKDSNGFSDPYVKIYLLPDRKKKFQTKVHRKTLNPIFNETFQFSVPLAELAQRKLHFSVYDFDRFSRHDLIGQVVLDNLLELAEQPPDRPLWRDILEGGSEKADLGELNFSLCYLPTAGLLTVTIIKASNLKAMDLTGFSDPYVKASLISEGRRLKKRKTSIKKNTLNPTYNEALVFDVAPESVENVGLSIAVVDYDCIGHNEVIGVCRVGPEAADPHGREHWAEMLANPRKPVEHWHQLVEEKTLSSFTKGGKGLSEKENSE | soluble
9 | MSKFWSPFVKDLVPYVPGEQPKLSRLVKLNTNENPYGPSPQALAAMQAELNDDLRLYPDPNGERLKQAVAAHYGVQANQVFVGNGSDEVLAHIFHGLFQHDLPLLFPDVTYSFYPVYCGLYGIAHEKIALDERFRIRVEDYARPNGGIIFPNPNAPTGCLLPLDAIEAMLKASPDSVVVVDEAYVDFGGESAIALVDRYPNLLVTQTLSKSRSLAGLRVGLAVGHADLVEALERIKNSFNSYPLDRLAIAGAAAAFEDDAYFRRTCQAVIDSREALSASLQALGFEVLPSAANFVFARHPRHDAGQIASTLREQGVIVRHFKQARIDQFLRITIGSPEQNQALLDALHFLK | not soluble
10 | MLYANKTVGNTSYKLSKKSIKEQTMLQKNKDLLIEIATRDVKSVFAYFKTTRDGLSMKEAQKRIQVYGRNELTSKRALLAEVMMKLGGMIPGFSKQRVCDELQRETITVSRVECSSSTGLNSELKMMEIPVQELVPGDMIFLSAGDAVPADVRIIYADDLLVNESVLTGNEANIEKFESCYHLERKRFIPLKRMKDYNPLELENVCFKGSHIVSGNAKAIVVSTGKNTYSGILHTCCSRTS | not soluble
11 | MSQEDLELFQQMMGDVKTITHDTVELKKAHQVTEAQLAKREAAVSLADHDPEALSIDHAPMLKPDDMLEFKRDGVQDGVYRKLRLGKYPIQARLDLHRKTLKEARSEVIQFIRQCMAMDIRTLLIVHGRGERSTPPALMKSFVSHWLTQISEVQCAHSAQRLHGGTGAVYVLLRKSAEKKAENRERHQKRLG | not soluble
12 | MGSDKIHHHHHHMALDGYTDQTMSRQAMRAELLDAETELRLAYAWRDQRDERALHRLITAYMRLAISMASKYRRYGAPMNDLIQEASLGLMKAADKFDPDRGVRFSTYAVWWIKASIQDYVMRNWSLVRTGSTSSQKALFFNMRRVQARLEREASQRGEALDAHQLREMVAHDVGVPLSDVEMMEGRLSGSDFSLNATQSADDEGREWIDALEDDSAQAAEVVEGSLDAARLRGWLVSAMQQLNARERFIVTERKLRDVPRTLESLGEELKLSKERVRQLEAAAFAKMRRSLEAQSREVHHFLL | not soluble
13 | MQTFEIKEEFLVDGKPTKLISGAIHYFRMTPAQWEDSLYNLKALGANTIETYIPWNLHEPVEGVYDFEGMKDIVAFVSLAQELGLMVILRPSVYICAEWEFGGLPAWLLKEHVRLRSTDPRFIAKVRTYFSVLLPKLVPLQVTHGGPVIMMQVENEYGSYGMEKEYLRQTKQVMEEFGIDVPLFTSDGAWEEVLDVGTLIEEDVFVTGNFGSHSKENATVMKAFMAKHDKKWPIMCMEYWDGWFNRWGEPIIKRDGQDLANEVKDMLALGSLNLYMFHGGTNFGFYNGCSARGVLDLPQVTSYDYDALLTEAGEPTEKYFHVQRAIKEVCPEVWQAEPRRKTFGSLGTFPVQNSVSLLAVKDQMMTAQETMYPITMEEAESGYGYMLYSVNLKNYHHENKLKVVEASDRLHLFADGSLQTIQYQENLREEVMIKGTPEKEWIELDVLVENLGRVNYGFKLNGPTQVKGIRGGIMQDIHFHQGYRQYALTLSADQLKKIDYTAGKNPAQPSFYQAEFTLTDLADTFIDCRSYGKGVVIVNGINLGRYWQRGPIHSLYCPKEFLKKGTNEIVIFETEGIEINELIFCGQPIVKKLLTNDFSEIGSNIHNHIDS | not soluble
14 | MGEVRVVGIRVEQPQNQPVLLLREANGDRYLPIWIGQSEAAAIALEQQGVEPPRPLTHDLIRDLIAALGHSLKEVRIVDLQEGTFYADLIFDRNIKVSARPSDSVAIALRVGVPIYVEEAVLAQAGLLIPDESDEEATTAVREDEVEKFKEFLDSVSPDDFKAT | soluble
15 | MSLTATAPCPYACGLCSLHENHSALVNIVVTNRCDLSCFYCFFYAERAGYIYEPSIEQIKFMVRQVARQRQGSDVHVNIQITGGEPTVREDLVDVVKAIREAGAHYIQLNTNGINVARRYLDNPPGAIDYVRSLREAGVSVVYMSFDGVTPKVNWKNHYEAPFALKAFQEGGLDNVVLVPTVIRTINDHEVGDIIRFAGKHIDVVRGVNFQPVSLTGMMRKHERERMRITIPDVIKRIEEQTDGQIPMDAWYPVPVVAKFVKAIDALTGKLYDTLSNHPACGSATYVFALERDRYGVPRRFLPITEVIDVEGFIEFLDEERIKLEHNSGRLSRLKVAAEIVWRARRFVDFDREGHHHHHH | not soluble
16 | MKTKLDFLKMKESEEPIVMLTAYDYPAAKLAEQAGVDMILVGDSLGMVVLGLDSTVGVTVADMIHHTKAVKRGAPNTFIVTDMPFMSYHLSKEDTLKNAAAIVQESGADALKLEGGEGVFESIRALTLGGIPVVSHLGLTPQSVGVLGGYKVQGKDEQSAKKLIEDSIKCEEAGAMMLVLECVPAELTAKIAETLSIPVIGIGAGVKADGQVLVYHDIIGHGVERTPKFVKQYTRIDETIETAISGYVQDVRHRAFPEQKHSFQMNQTVLDGLYGGKLEHHHHHH | soluble
17 | MGHHHHHHGGHMSLLTFVGLGLWDVKDISVKGLEAVREADEVYVEYYTSKLLSSIEEMEEFFGKRVVELERSDLEENSFRLIERAKSKSVVLLVPGDPMVATTHSAIKLEAERKGVKTRIIHGASISTAVCGLTGLHNYRFGKSATVSWHRSQTPVNVIKANRSIDAHTLLFLDLHPEPMTIGHAVENLIAEDAQMKDLYAVGIARAGSGEEVVKCDRLENLKKIDFGKPLHVMVVLAKTLHFMEFECLREFADAPAELERLVAEGGS | soluble
18 | MESGKMAPPKNAPRDALVMAQILKDMGITEYEPRVINQMLEFAFRYVTTILDDAKIYSSHAKKPNVDADDVRLAIQCRADQSFTSPPPRDFLLDIARQKNQTPLPLIKPYAGPRLPPDRYCLTAPNYRLKSLIKKGPNQGRLVPRLSVGAVSSKPTTPTIATPQTVSVPNKVATPMSVTSQRFTVQIPPSQSTPVKPVPATTAVQNVLINPSMIGPKNILITTNMVSSQNTANEANPLKRKHEDDDDNDIM | soluble
19 | MGSDKIHHHHHHMEEITKIESIDQYDQLFGLETLHPLVNVIDFSKATKTVDYYRMNIGFYSLFLKDAKCGDLRYGRKYYDYQEGTVVCMAPGQVIGIDNRKQTPIRTKSIGLLFHPDLIRGTSLGQNIKHYSFFSYEVNEALHLSEQEREIVTDCIHKIQIELEHAIDKHSKQLIVRNIELLLDYCMRFYERQFITRNQANKDIIVKFEQLLDEYFQNQTALTEGLPSVKYFADKVCLSSNYFGDLIKKETGKTAQEYIQHRIIELAKERILEGSQTVSQIAYELGFQYPQHFSRLFKKNVGCTPNEYKQQN | not soluble
20 | MPSSIICDVSHEGEASGGPSPSSRISNGFSHTVCDLHHNFPIVKNRRKYHNSISTQSSSSTTTSLERISTSTCTSTSSSASDAIISRAEKDVQTFLVSDESTTGDHEEEEEDDEDGDDESDHNDYDYEDDGERSEHDHEQTDNDDDEDEIEPFVSSWCFAMGTQRSVMSSVGEKAPKSNVKSMEDWELDVVERAHRESHLAELYADLSWRFYTHPPTSFCLARVFLRHGLTGNEGVSSWKLPRKANRRNSSCSSISSVSESSSPSALDESTLTKILPTDNFRGGRGFASPSPPTSLLSEPLSRMDVLSEKIWDYHNKVSQTDEMLQRKLHLRDMLYTAISPVFPLSGLYVVGSSLNGFGNNSSDMDLCLMITNKDLDQKNDAVVVLNLILSTLQYEKFVESQKLILAKVPILRINFAAPFDDITVDLNANNSVAIRNTHLLCYYSSYDWRVRPLVSVVKEWAKRKGINDANKSSFTSYSLVLMVIHFLQCGPTKVLPNLQQSYPNRFSNKVDVRTLNVTMALEEVADDIDQSLSEKTTLGELLIGFLDYYANEFNYDRDAISIRQGRRVERAALAVRPKIHSNSEGDKETPPPSSSASTSSIHNGGTPGIPMHHSISNPHFWRSQWRCVCIEEPFTNSNTAHSIYDEMVFEAIKKAFREAHGELQHNHDLDKLMECEPIKASTTNTGAAVFAATYEGERPLAQQPNTIACASLRVLNSIPVSSGPGHYHYQQQSNQNLSRPQRPGSNQGYQMNNNRGFNGNNQQQHQNRRSFNNQSSSNPGNGSTGPRSSRSNENVRDSSRQQNSQKGSSGVSVSKENVASTTGVPVDKKQQNSNRKDDGNRTKRSPMVQSPEPAKTKSEKTPMASSNVSQ | not soluble
